Laboratory results from patent US20220153832A1 (PIONYR IMMUNOTHERAPEUTICS, published 2022).

T1: human MARCO (R&D biosystems), recombinant, coated in the LDL competition assay (human, UniProt Q9UEW3 70-520, limits assumed)
T1 construct: Bought protein
T1 sequence (looked up): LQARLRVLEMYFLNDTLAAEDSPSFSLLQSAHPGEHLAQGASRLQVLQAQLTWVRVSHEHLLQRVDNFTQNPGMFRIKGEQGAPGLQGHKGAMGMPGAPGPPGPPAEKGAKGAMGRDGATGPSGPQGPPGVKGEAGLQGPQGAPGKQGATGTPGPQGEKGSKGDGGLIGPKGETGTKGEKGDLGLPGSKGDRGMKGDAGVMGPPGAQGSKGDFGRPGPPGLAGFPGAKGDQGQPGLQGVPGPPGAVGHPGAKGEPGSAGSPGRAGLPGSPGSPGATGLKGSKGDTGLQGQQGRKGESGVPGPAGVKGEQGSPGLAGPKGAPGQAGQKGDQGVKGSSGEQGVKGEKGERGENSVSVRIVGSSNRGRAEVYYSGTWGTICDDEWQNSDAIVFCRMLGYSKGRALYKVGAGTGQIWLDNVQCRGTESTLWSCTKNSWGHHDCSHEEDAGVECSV

T2: N-terminally polyhistidine tagged human MARCO ECD (147-520), recombinant (human, UniProt Q9UEW3 147-520)
T2 construct: also called PI-RG-3000; recombinant human MARCO; not shown: N-terminal polyhistidine tag
T2 sequence: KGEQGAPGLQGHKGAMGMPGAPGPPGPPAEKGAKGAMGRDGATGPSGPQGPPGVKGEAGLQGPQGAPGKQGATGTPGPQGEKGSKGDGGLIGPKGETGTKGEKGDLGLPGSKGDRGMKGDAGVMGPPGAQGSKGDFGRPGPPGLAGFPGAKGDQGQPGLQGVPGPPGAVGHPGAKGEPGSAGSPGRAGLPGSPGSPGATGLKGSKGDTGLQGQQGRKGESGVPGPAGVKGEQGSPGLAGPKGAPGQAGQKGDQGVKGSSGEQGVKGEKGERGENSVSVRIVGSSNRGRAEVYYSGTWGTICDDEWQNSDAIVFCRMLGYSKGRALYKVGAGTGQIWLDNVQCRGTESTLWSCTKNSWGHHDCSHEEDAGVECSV

T3: Cynomolgus MARCO, full length, on cells (cynomolgus, UniProt A0A2K5X0Z2 1-519)
T3 construct: whole, on cells; also called cyno MARCO; CyMARCO
T3 sequence: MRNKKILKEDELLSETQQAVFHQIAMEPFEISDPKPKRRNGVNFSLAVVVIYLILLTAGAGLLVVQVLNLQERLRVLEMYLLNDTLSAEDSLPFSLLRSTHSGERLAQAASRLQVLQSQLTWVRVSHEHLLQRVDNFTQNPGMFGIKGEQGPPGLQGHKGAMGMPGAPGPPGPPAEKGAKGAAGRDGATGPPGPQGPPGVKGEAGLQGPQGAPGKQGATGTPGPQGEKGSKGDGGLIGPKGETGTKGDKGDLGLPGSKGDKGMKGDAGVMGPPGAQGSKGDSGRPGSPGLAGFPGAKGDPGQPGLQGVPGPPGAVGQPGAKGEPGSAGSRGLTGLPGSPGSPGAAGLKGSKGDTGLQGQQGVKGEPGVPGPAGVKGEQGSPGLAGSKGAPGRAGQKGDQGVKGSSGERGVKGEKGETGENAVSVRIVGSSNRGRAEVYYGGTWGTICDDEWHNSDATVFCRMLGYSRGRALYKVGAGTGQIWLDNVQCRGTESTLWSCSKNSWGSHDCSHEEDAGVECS

B1: PI-HX-3061 (antibody, rat IgG2a)
heavy: EVQLVESGGGLVQPGSSLKLSCVASKFTFSNYGMNWIRQAPKKGLEWIALIYYNSNNKYYADSVKGRFTISRDNSKNTLYLEMNSLRSEDTAMYYCAKSLTGGSDYFDSWGQGVMVTVSSAETTAPSVYPLAPGTALKSNSMVTLGCLVKGYFPEPVTVTWNSGALSSGVHTFPAVLQSGLYTLTSSVTVPSSTWPSQTVTCNVAHPASSTKVDKKIVPRNCGGDCKPCICTGSEVSSVFIFPPKPKDVLTITLTPKVTCVVVDISQDDPEVHFSWFVDDVEVHTAQTRPPEEQFNSTFRSVSELPILHQDWLNGRTFRCKVTSAAFPSPIEKTISKPEGRTQVPHVYTMSPTKEEMTQNEVSITCMVKGFYPPDIYVEWQMNGQPQENYKNTPPTMDTDGSYFLYSKLNVKKEKWQQGNTFTCSVLHEGLHNHHTEKSLSHSP
light: DVQMTQSPSYLAASPGESVSISCKASKSIGTFLAWYQEKPEKTNKLLIYSGSTLQSGTPSRFSGSGSGTDFTLTIRNLEPEDFAVYYCQQHDEYPFTFGSGTKLEIKRADAAPTVSIFPPSTEQLATGGASVVCLMNNFYPRDISVKWKIDGTERRDGVLDSVTDQDSKDSTYSMSSTLSLTKADYESHNLYTCEVVHKTSSSPVVKSFNRNEC
notes: Parental rat hybridoma, rat IgG2a; cross reactive with human and mouse MARCO
B2: PI-HX-3031 (antibody)
heavy: QVQLKESGPGLVQPSQTLSLTCTVSGFSLTSYHVSWVRQPPGKGLEWMGAIWTGGSIAYNSLLKSRLSISRDTSKSQVFLKMNSLQTEDTATYYCARDLSDYYSSYTSFDYWGQGVMVTVSTAETTAPSVYPLAPGTALKSNSMVTLGCLVKGYFPEPVTVTWNSGALSSGVHTFPAVLQSGLYTLTSSVTVPSSTWSSQAVTCNVAHPASSTKVDKKIVPRECNPCGCTGSEVSSVFIFPPKTKDVLTITLTPKVTCVVVDISQNDPEVRFSWFIDDVEVHTAQTHAPEKQSNSTLRSVSELPIVHRDWLNGKTFKCKVNSGAFPAPIEKSISKPEGTPRGPQVYTMAPPKEEMTQSQVSITCMVKGFYPPDIYTEWKMNGQPQENYKNTPPTMDTDGSYFLYSKLNVKKETWQQGNTFTCSVLHEGLHNHHTEKSLSHSP
light: DIQMTQSPASLSTSLGETVSIECLASEGISNDLAWYQQKSGKSPQLLIYAASRLQDGVPSRFSGSGSGTRYSLKISGMQPEDEADYFCQQSYKYPLTFGSGTKLEIKRADAAPTVSIFPPSTEQLATGGASVVCLMNNFYPRDISVKWKIDGTERRDGVLDSVTDQDSKDSTYSMSSTLSLTKADYESHNLYTCEVVHKTSSSPVVKSFNRNEC
notes: Parental rat hybridoma, rat IgG2a
B3: PI-HX-3043 (antibody, rat IgG2a)
heavy: QVNLLQSRAALVKPGASVKLSCKASGYTFTDYYLHWVKQSHAKSLEWIGYINPNNAYTSYNEKFKSKATLTVDKSTNTAYMELSRLTSADSATYYCARDTTDYYNLHFAYWGQGTLVTVSSAETTAPSVYPLAPGTALKSNSMVTLGCLVKGYFPEPVTVTWNSGALSSGVHTFPAVLQSGLYTLTSSVTVPSSTWSSQAVTCNVAHPASSTKVDKKIVPRECNPCGCTGSEVSSVFIFPPKTKDVLTITLTPKVTCVVVDISQNDPEVRFSWFIDDVEVHTAQTHAPEKQSNSTLRSVSELPIVHRDWLNGKTFKCKVNSGAFPAPIEKSISKPEGTPRGPQVYTMAPPKEEMTQSQVSITCMVKGFYPPDIYTEWKMNGQPQENYKNTPPTMDTDGSYFLYSKLNVKKETWQQGNTFTCSVLHEGLHNHHTEKSLSHSP
light: DIQMTQSPASLSASLGETVSIECLTSEGISNDLAWYQQKSGKSPQLLIYDASRLEDGVPSRFSGSGSGTRYSLKISGMQTEDEADYFCQQSYKYPLTFGSGTKLEIKRADAAPTVSIFPPSTEQLATGGASVVCLMNNFYPRDISVKWKIDGTERRDGVLDSVTDQDSKDSTYSMSSTLSLTKADYESHNLYTCEVVHKTSSSPVVKSFNRNEC
notes: as for B2

Legend:
[1] = target: T1, human MARCO (R&D biosystems), …; assay: LDL competition on coated human MARCO (MSD), competitor biotinylated hLDL
Procedure: A high-binding, 96-well MSD plate was coated with 4 μg/ml mouse MARCO or 4 μg/ml human MARCO (R&D biosystems). After the plate was blocked with PBST and 5% BSA for an hour, titrated anti-mouse or anti-human MARCO antibodies were added to the plate and incubated for 30 minutes. Biotinylated hLDL (860 pM or 2 μg/ml) were added to the antibody, and the antibody/LDL mixture was incubated for an hour to allow the mixture to reach binding equilibrium. The plates were washed and bound biotinylated LDL was detected with Sulfo-tagged streptavidin that generates an electrocheminlumenscent signal when read buffer is added and electricity is applied to the electrodes in the MSD plate. IC50's were calculated using a 4-parameter curve fit in GraphPad Prism software.
The newly generated rat hybridoma anti-human MARCO antibodies were characterized as previously described. Neither antibody bound to MSR1. Binding kinetics were determined via Multi Cycle Kinetics analysis using the huMARCO antigen as previously described.

[2] = target: T2, N-terminally polyhistidine tagged human …; assay: SPR, multi cycle kinetics, huMARCO antigen
Procedure, shortened: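 On a CM4 chip, anti-mouse Fc mAb was amine-coupled to a 4500 RU target and used to capture the antibodies. Their binding kinetics and affinity for N-terminally His-tagged human MARCO extracellular domain (147-520) were then measured by multi-cycle surface plasmon resonance on a Biacore T200. This was done at 25° C in 10 mM HEPES pH 7.4, 150 mM NaCl, 3 mM EDTA, 0.05% surfactant P20, with 0.625–10 nM injections, 90 s association and 600 s dissociation, and fitting in BIAevaluation 3.1.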

[3] = target: T3, Cynomolgus MARCO, full length, on cells; assay: flow cytometry, 293T (CyMARCO)
Procedure: Supernatants were removed and cell pellets were resuspended in Ca²⁺+ and Mg²⁺+ Dulbecco's phosphate-buffered saline (D-PBS) at 1×10⁶ cells/ml. 100,000 cells/well were plated onto U-bottom 96-well plates for staining and all centrifugation steps were performed at 1500 rpm at 4° C. for 5 min and samples were kept protected from light throughout the protocol. Cells were pelleted and resuspended in 100 μl of Zombie NIR viability dye (BioLegend) prepared by diluting Zombie NIR dimethyl sulfoxide (DMSO) stock 1000-fold in D-PBS. Cells were stained by incubation for 10 min at room temperature (RT) in the dark, followed by quenching the staining reaction with the addition of 100 μl of Staining Medium (D-PBS containing 2% FBS and 2 mM ethylenediaminetetraacetic acid (EDTA). Cells were pelleted and resuspended in 100 μl of the different antibodies and hybridomas supernatants needed for screening and corresponding isotype controls in freshly prepared staining medium, such as PI-M014 and mIgG2b isotype. All mAbs were tested at the final top concentration of 100 nM (15 μg/ml) followed by an 8-point three-fold serial dilution, including 0 mg/ml control. Staining was carried out for 1 hour (hr) on ice, followed by 2 washes in Staining Medium. Cells were then pelleted and resuspended in 100 μl of allophycocyanin (APC)-conjugated goat anti-mouse IgG (Fc-specific) secondary antibody, prepared by 500-fold dilution of the antibody stocks in Staining Medium, and incubated for 30 min on ice. […] Flow cytometry data were analyzed using FlowJo software (version 10.6.1) and data were processed and further analyzed in Microsoft Excel and GraphPad Prism software (version 8). Half-maximal effective concentrations (EC₅₀) were calculated based on geometric mean fluorescence intensities (gMFI). In case when the plates were not able to be analyzed on the cytometer, cells were pelleted after the washes and fixed in 100 μl of 2% paraformaldehyde (PFA), prepared by diluting the 16% (w/v) stock (Thermo Fisher) in DPBS, for 15 min at RT. […]

Binder	EC50 [1]	Kd [2]	EC50 [3]
B1	8.2 nM	0.256 nM	
B2	6.2 nM	0.0913 nM	0.046 nM
B3			0.067 nM
